Experimental data reported in article PMC5101480 (Scientific Reports, 2016).
“Also recorded” adds a separate entry of the source.

Tests used:
[1] = biological target: T1, TPR domain of SGTA (SGTA_TPR) (Homo sapiens, UniProt O43765); assay: Size exclusion chromatography (SEC) complex formation with SGTA_TPR; type: binding; details: mixed in 1:1 molar ratio
T1 construct: thioredoxin A (TxA) fusion (N, cleaved yes); hexahistidine tag (N, cleaved yes); made in house; host or cells: E. coli BL21(DE3) Rosetta
Protocol: In order to understand molecular details underlying the interaction between SGTA and Rpn13, solution NMR studies were carried out on excised domains of SGTA and Rpn13 guided by earlier mapping studies. Reciprocal chemical shift perturbation (CSP) experiments were performed by titrating unlabelled Rpn13 C-terminal domain (residues 260–407; hereafter described as Rpn13_260-407) into ^15N-labelled TPR domain of SGTA (residues 84–211; hereafter referred to as SGTA_TPR) and vice versa. Assignments of backbone amide resonances were obtained from the BMRB (accession numbers 5709 and 17286, for SGTA_TPR and Rpn13_260-407, respectively). The ^1H-^15N HSQC spectra of both SGTA_TPR and Rpn13_260-407 show binding in a fast exchange regimen (Figs 1A and 2A). […] Binding was further confirmed by size-exclusion chromatography (SEC) and isothermal titration calorimetry (ITC) (Fig. 1C,D). […]
SGTA_TPR and Rpn13 plasmids were transformed into E. coli BL21(DE3) Rosetta cells, with protein expression induced by adding 0.3–0.5 mM isopropyl-β-D-thiogalactopyranoside (IPTG) to bacterial cultures in LB media at OD600 ≈ 0.8, followed by overnight incubation at 18 °C. […] Proteins were concentrated using Vivaspin concentrators (Sartorius Stedin) and sample purity and homogeneity was assessed by SDS-PAGE, mass spectrometry and NMR. […]

[2] = 1H-15N heteronuclear NOE of Rpn13_260-407, free and SGTA_TPR-bound; design: species or system human; details: 350 μM 15N-labelled Rpn13_260-407, 700 MHz, four second saturation transfer or control period
Protocol: To study the dynamic properties of free and SGTA_TPR-bound Rpn13_260-407, ^1H- ^15N heteronuclear NOE experiments were carried out with a four second saturation transfer or control period. […] The average heteronuclear NOE enhancement value for Rpn13 residues Asp 403 to Asp 407 in the free and SGTA_TPR-bound state were −0.71 and 0.48, respectively, thus indicating the transition of the Rpn13 extreme C-terminal pentapeptide region to a more ordered state upon binding to SGTA_TPR (Fig. 2C).
where Δδ1H and Δδ15N are the chemical shift differences for the same amide in its free and bound state (δfree−δbound) and for proton and nitrogen chemical shift values respectively. CSP results were mapped on to the SGTA_TPR crystal structure (PDB code 2VYI) using PyMOL. ^1H-^15N heteronuclear NOE experiments were performed with a four second saturation transfer or control period at 700 MHz. Sample concentrations of ^15N-labelled Rpn13_260-407 were maintained at 350 μM both in its free and bound state with unlabelled SGTA_TPR at a 1:1 molar ratio.

[3] = biological target: T1, TPR domain of SGTA (SGTA_TPR); assay: Isothermal titration calorimetry (ITC), SGTA_TPR titrated into Rpn13 or DMSLD peptide; type: binding
Protocol: ITC experiments were performed using an ITC-200 microcalorimeter from Microcal (GE Healthcare) at 25 °C following the standard protocol as reported previously. Proteins or peptide samples were prepared in 10 mM potassium phosphate pH 6.0, 100 mM NaCl, 250 μM TCEP. In each titration, either 40 injections of 1 μL or 20 injections of 2 μL of SGTA_TPR each, at a concentration of 1 mM, were added to a sample of Rpn13 or the Rpn13 derived DMSLD peptide at a concentration of 50 μM in the reaction cell. A nonlinear least-squares minimization algorithm was applied to integrated heat data obtained for the titrations, corrected for heats of dilution, in order to fit the experimentally obtained values to a theoretical titration curve. This was performed using the MicroCal-Origin 7.0 software package. ΔH (reaction enthalpy change in kcal/mol), Kb (equilibrium binding constant in per molar), and n (molar ratio between the proteins in the complex) were used as fitting parameters. The reaction entropy, ΔS, was calculated using the relationships ΔG = −RT lnKb (R = 8.314 J/(mol K), T 298 K) where ΔG = ΔH − TΔS. Dissociation constants (Kd) have been determined for each interaction. Binding was assumed to be at one site (n = 1), to determine the binding affinity (Kd) and thermodynamic parameters.

T1 sequence (O43765 84-211): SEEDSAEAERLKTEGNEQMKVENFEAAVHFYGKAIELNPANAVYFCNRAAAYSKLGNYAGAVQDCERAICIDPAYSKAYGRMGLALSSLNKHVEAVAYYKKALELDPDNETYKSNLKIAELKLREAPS

ΔS (ITC) ([3]; 1 mM SGTA_TPR into 50 μM sample, pH 6.0, 25 °C, calculated from ΔG = −RT lnKb and ΔG = ΔH − TΔS): 10.6 ± 0.8 cal/mol·K
ΔH (ITC) ([3]; 1 mM SGTA_TPR into 50 μM sample, pH 6.0, 25 °C, one site (n = 1)): -3.37 ± 0.08 kcal/mol
Kd ([3]; ITC-200, 1 mM SGTA_TPR injected into 50 μM Rpn13 or DMSLD peptide, 10 mM potassium phosphate pH 6.0, 100 mM NaCl, 250 μM TCEP, 25 °C, one site (n = 1), read-out: dissociation constant, Kd (ITC)): 16.1 ± 1.4 µM
B1: Rpn13_260-407: Rpn13 C-terminal domain (residues 260–407), human, expressed in E. coli (protein)
chain: QPIQLSDLQSILATMNVPAGPAGGQQVDLASVLTPEIMAPILANADVQERLLPYLPSGESLPQTADEIQNTLTSPQFQQALGMFSAALASGQLGPLMCQFGLPAEAVEAANKGDVEAFAKAMQNNAKPEQKEGDTKDKKDEEEDMSLD
modifications: left off: thioredoxin A (TxA), N-terminal, cleaved | His6, N-terminal, cleaved
notes: Rpn13 C-terminal domain (residues 260–407), human, expressed in E. coli
SEC complex formation with SGTA_TPR [1]: clearly indicative of a stable complex; also recorded: formation of a stable complex
average heteronuclear NOE enhancement value, residues Asp 403 to Asp 407 ([2]; SGTA_TPR-bound state, 1:1 molar ratio): 0.48
average heteronuclear NOE enhancement value, residues Asp 403 to Asp 407 ([2]; free state): −0.71
